B1: A-type flagellin (Pseudomonas aeruginosa), P21184 (parent)
chain: MALTVNTNIASLNTQRNLNNSSASLNTSLQRLSTGSRINSAKDDAAGLQIANRLTSQVNGLNVATKNANDGISLAQTAEGALQQSTNILQRMRDLSLQSANGSNSDSERTALNGEVKQLQKELDRISNTTTFGGRKLLDGSFGVASFQVGSAANEIISVGIDEMSAESLNGTYFKADGGGAVTAATASGTVDIAIGITGGSAVNVKVDMKGNETAEQAAAKIAAAVNDANVGIGAFSDGDTISYVSKAGKDGSGAITSAVSGVVIADTGSTGVGTAAGVTPSATAFAKTNDTVAKIDISTAKGAQSAVLVIDEAIKQIDAQRADLGAVQNRFDNTINNLKNIGENVSAARGRIEDTDFAAETANLTKNQVLQQAGTAILAQANQLPQSVLSLLR
B2: BRASSINOSTEROID … 1-associated receptor kinase 1 (Arabidopsis thaliana (Mouse-ear cress)), Q94F62 (parent)
chain: MERRLMIPCFFWLILVLDLVLRVSGNAEGDALSALKNSLADPNKVLQSWDATLVTPCTWFHVTCNSDNSVTRVDLGNANLSGQLVMQLGQLPNLQYLELYSNNITGTIPEQLGNLTELVSLDLYLNNLSGPIPSTLGRLKKLRFLRLNNNSLSGEIPRSLTAVLTLQVLDLSNNPLTGDIPVNGSFSLFTPISFANTKLTPLPASPPPPISPTPPSPAGSNRITGAIAGGVAAGAALLFAVPAIALAWWRRKKPQDHFFDVPAEEDPEVHLGQLKRFSLRELQVASDNFSNKNILGRGGFGKVYKGRLADGTLVAVKRLKEERTQGGELQFQTEVEMISMAVHRNLLRLRGFCMTPTERLLVYPYMANGSVASCLRERPESQPPLDWPKRQRIALGSARGLAYLHDHCDPKIIHRDVKAANILLDEEFEAVVGDFGLAKLMDYKDTHVTTAVRGTIGHIAPEYLSTGKSSEKTDVFGYGVMLLELITGQRAFDLARLANDDDVMLLDWVKGLLKEKKLEALVDVDLQGNYKDEEVEQLIQVALLCTQSSPMERPKMSEVVRMLEGDGLAERWEEWQKEEMFRQDFNYPTHHPAVSGWIIGDSTSQIENEYPSGPR

Variants of: B1
Details: with fls2_arath FLS2, Q9FL28
Target sequence in this assay (Q9FL28 whole entry): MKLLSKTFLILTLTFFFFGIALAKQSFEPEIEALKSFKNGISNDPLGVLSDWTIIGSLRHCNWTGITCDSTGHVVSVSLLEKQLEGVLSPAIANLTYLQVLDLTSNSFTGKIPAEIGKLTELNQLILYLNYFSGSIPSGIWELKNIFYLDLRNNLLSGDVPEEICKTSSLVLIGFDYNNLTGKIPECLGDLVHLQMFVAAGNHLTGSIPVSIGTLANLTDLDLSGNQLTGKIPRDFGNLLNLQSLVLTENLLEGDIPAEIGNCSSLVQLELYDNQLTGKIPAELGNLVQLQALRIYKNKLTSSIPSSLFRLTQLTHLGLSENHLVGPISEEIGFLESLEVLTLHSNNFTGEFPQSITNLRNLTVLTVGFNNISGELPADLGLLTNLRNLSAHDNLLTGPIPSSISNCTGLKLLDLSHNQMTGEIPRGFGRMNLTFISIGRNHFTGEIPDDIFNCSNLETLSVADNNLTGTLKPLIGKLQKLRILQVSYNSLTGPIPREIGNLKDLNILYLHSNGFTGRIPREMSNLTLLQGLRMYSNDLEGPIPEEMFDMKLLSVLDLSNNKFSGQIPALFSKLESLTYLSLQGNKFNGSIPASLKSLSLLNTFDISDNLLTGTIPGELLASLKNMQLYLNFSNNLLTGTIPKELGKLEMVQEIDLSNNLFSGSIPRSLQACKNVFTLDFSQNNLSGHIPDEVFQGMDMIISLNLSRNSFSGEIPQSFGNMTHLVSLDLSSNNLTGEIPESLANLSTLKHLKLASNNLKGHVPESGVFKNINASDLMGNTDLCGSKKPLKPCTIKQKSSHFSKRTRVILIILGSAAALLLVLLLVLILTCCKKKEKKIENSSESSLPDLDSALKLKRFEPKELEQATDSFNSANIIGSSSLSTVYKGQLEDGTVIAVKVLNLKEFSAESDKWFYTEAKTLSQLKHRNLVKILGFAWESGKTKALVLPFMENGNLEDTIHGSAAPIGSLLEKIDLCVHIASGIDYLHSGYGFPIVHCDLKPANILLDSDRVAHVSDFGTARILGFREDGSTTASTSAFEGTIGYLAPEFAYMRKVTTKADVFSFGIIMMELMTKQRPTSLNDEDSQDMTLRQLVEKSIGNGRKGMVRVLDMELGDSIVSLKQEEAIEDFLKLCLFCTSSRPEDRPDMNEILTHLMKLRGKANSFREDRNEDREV

Variant	effect of a mutation on the interaction
D44A	disrupting interaction strength
A46Y	decreasing interaction strength
D43A	disrupting interaction strength

Variants of: B1
Details: with bak1_arath BAK1, Q94F62

Variant	effect of a mutation on the interaction
G47Y	disrupting interaction strength
G47A	decreasing interaction strength

Variants of: B2
Details: with flica_pseai fliC

Variant	effect of a mutation on the interaction
V54Y	decreasing interaction strength
Y96A	decreasing interaction strength
L53A	decreasing interaction strength
F60A;F144A	disrupting interaction strength

Variants of: B2
Details: with fls2_arath FLS2, Q9FL28
Target sequence in this assay (Q9FL28 whole entry): as above

Variant	effect of a mutation on the interaction
V54Y	disrupting interaction strength
Y96A	disrupting interaction strength
L53A	disrupting interaction strength
F60A;F144A	disrupting interaction strength

Source: IntAct's records for PubMed 24114786
